The values that follow come from patent US20230338524A1.

As a reminder, the EC50 (read off the curve) is the concentration that produces a half-maximal response. A lower EC50 (read off the curve) goes with an effect from little substance.

The target in experiment [1] is soluble murine VEGFR2 (murine) (UniProt P35918). Kind of experiment: ELISA, OD450, panel 'mVEGFR2', antibody titrated (Log (M)).
In experiment [2] the target is mouse VEGFR2 (mouse) (UniProt P35918). Kind of experiment: Blocking ELISA, panel 'mVEGF-mVEGFR2'; blocked ligand murine VEGF; antibody titrated (Log (M)).
Chain of mouse VEGFR2 (mouse) (P35918 20-762 limits assumed): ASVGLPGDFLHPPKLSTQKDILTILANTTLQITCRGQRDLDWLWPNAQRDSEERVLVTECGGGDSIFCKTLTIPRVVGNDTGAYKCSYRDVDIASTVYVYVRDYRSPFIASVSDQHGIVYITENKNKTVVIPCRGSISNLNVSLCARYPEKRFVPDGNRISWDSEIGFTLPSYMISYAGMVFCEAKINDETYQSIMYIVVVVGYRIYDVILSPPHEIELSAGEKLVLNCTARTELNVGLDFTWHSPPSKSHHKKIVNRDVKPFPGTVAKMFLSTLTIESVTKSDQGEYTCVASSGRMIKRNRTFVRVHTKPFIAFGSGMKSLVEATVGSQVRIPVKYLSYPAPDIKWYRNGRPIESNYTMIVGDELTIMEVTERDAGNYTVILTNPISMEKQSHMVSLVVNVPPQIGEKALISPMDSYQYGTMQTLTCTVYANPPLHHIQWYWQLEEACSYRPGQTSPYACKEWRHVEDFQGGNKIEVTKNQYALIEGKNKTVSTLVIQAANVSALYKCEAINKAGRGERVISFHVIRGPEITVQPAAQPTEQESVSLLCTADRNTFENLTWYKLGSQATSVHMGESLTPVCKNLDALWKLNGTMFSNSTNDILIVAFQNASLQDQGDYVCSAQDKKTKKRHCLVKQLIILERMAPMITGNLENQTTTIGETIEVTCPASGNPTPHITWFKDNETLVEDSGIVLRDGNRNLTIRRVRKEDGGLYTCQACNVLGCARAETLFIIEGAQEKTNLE

Chain of soluble murine VEGFR2 (murine) (P35918 20-762 limits assumed): as above

B1: DC101 (a murine monoclonal Ab that binds to murine VEGFR2) (antibody, from another filing, V domains shown)
VH: EVQLVETGGGLVQPGNSLKLSCATSGFIFSTTWMNWIRQTPGKRLEWLAQIEDKSNNYFISYSESVKGRFTISRDDSKSSVYLQMNNLKEEDTAIYYCSWKYRSNYYFDYWGQGVMVTVSS
VL: DIVLTQSPALAVSLEQRATISCKTSQNVDYYGISYLHWYQQKPGQQPKLLIYEGSNLASGIPARFSGSGSGTDFTLTIDPVEADDIVTYYCQQSKDYPYTFGAGTKLELKR
Regarding B1, the EC50 (read off the curve) in experiment [1] worked out at 0.3 nM. This molecule returned an IC50 (read off the curve) in experiment [2] of 0.5 nM.
